Experimental data: paper doi:10.1101/2020.04.26.062372

What was measured:
[1] = target: GLP-1R-SmBiT (glucagon-like peptide-1 receptor tagged at the C-terminus with SmBiT) (UniProt P43220); experiment: split reporter
[2] = target: GIPR-SmBiT (glucose-dependent insulinotropic polypeptide receptor tagged at the C-terminus with SmBiT) (UniProt P48546); experiment: split reporter
Sequence of UniProt P48546 (P48546 22-466): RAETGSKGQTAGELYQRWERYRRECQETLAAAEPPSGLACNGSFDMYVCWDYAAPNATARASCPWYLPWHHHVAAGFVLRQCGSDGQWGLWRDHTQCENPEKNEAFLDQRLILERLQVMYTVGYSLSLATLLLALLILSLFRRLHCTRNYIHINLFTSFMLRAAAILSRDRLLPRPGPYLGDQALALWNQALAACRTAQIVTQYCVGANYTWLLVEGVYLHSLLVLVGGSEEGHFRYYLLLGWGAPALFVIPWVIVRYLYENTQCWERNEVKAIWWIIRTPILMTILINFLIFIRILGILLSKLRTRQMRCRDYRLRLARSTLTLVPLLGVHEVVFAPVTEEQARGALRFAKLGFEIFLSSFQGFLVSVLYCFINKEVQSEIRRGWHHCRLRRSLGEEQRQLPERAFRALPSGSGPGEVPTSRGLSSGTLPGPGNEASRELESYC

Sequence of UniProt P43220 (P43220 24-463): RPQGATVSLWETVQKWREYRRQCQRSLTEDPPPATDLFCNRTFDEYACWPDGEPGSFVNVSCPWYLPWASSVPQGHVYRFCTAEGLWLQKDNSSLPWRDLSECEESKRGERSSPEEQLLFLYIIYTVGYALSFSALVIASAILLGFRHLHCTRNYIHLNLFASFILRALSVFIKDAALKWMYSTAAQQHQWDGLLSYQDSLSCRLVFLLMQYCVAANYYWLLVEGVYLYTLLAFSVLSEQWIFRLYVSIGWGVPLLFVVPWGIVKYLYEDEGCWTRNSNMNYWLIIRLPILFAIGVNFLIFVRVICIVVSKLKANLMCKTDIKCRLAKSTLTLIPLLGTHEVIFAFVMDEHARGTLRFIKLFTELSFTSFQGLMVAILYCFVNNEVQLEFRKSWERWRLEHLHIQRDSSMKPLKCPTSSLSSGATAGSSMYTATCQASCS

- t1/2 of ligand-induced recruitment [1]: 1.5 min
- t1/2 of ligand-induced recruitment [2]: 7.1 min
Substance: LgBiT-mini-Gs
